Measurements from patent US20140212427A1 (published 2014).

Target: human properdin (UniProt P27918 28-469)
Test: Biacore SPR

Sequence of human properdin (P27918 28-469): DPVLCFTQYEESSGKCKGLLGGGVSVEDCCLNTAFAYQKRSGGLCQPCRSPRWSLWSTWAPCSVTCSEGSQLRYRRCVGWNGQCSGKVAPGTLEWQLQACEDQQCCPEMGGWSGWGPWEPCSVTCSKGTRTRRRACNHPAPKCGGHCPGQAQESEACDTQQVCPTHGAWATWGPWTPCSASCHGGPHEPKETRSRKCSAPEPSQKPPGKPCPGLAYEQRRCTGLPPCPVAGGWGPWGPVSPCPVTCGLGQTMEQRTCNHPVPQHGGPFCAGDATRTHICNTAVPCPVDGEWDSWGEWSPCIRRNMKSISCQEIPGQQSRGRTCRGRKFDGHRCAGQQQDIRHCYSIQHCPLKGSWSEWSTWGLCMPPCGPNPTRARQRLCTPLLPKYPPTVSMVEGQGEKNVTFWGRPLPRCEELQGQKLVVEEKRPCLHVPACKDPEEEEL

Row | Binder | Kd
1 | mAb 19.1 (antibody, V domains shown) VH: QVQLKQSGPGLVQPSQSLSISCTVSGFSLTTYGVHWVRQSPGKGLEWLGVIWSGGDTDYNASFISRLRINKDTSKSQVFFKMNSLQADDTAYYCARNKDYYTNYDFTMDYWGQGTSVTVSS VL: NIMMTQSPSSLAVSAGEKVTMSCKSSQSVLYSSNQKNFLAWYQQKPGQSPKLLIYWASTRESGVPDRFTGSGSGTDFILTINSVQVEDQAVYYCHQYLSSYTFGGGTKLEIK | 0.00284 nM
2 | chimeric 19.1 mAb (antibody, V domains shown) VH: QVQLKQSGPGLVQPSQSLSISCTVSGFSLTTYGVHWVRQSPGKGLEWLGVIWSGGDTDYNASFISRLRINKDTSKSQVFFKMNSLQADDTAYYCARNKDYYTNYDFTMDYWGQGTSVTVSS VL: NIMMTQSPSSLAVSAGEKVTMSCKSSQSVLYSSNQKNFLAWYQQKPGQSPKLLIYWASTRESGVPDRFTGSGSGTDFILTINSVQVEDQAVYYCHQYLSSYTFGGGTKLEIKT | 0.00289 nM
3 | humanized 19.1 mAb with heavy chain variable region humanized 19.1 VH-4-59-01 (antibody, V domains shown) VH: QVQLQESGPGLVKPSETLSLTCTVSGFSLTTYGVHWIRQPPGKGLEWIGVIWSGGDTDYNASFISRVTISVDTSKNQFSLKLSSVTAADTAVYYCARNKDYYTNYDFTMDYWGQGTTVTVSS VL: not shown | 0.58 nM
4 | humanized 19.1 mAb with heavy chain variable region humanized 19.1 VH-3-66-04 (antibody, V domains shown) VH: EVQLVESGGGLVQPGGSLRLSCAASGFSLTTYGVHWVRQAPGKGLEWVSVIWSGGDTDYNASFISRFTISRDNSKNTLYLQMNSLRAEDTAVYYCARNKDYYTNYDFTMDYWGQGTTVTVSS VL: not shown | 0.47 nM
